For assay [1], the target named is T1, MAP tag peptide (14-residue) (Mus musculus).
T1 construct: 14-residue MAP tag derived from mouse podoplanin; also called MAP14 peptide; MAP peptide; source: synthetic peptide; also conjugated to Sepharose
T1 chain: GDGMVPPGIEDKIT
Nature of the assay: pull-down; purified Fv-clasp samples mixed with MAP14 peptide-conjugated Sepharose, 1 h at room temperature; washed three times with TBS (20 mM Tris pH 7.5, 150 mM NaCl); 15% SDS-PAGE, Coomassie. The following applies: both partners purified.

The target in a further assay is T2, Fn10-nMAP14 (Mus musculus (MAP tag), chimera).
T2 construct: original 14-residue MAP tag derived from mouse podoplanin, at the N-terminus; tenth fibronectin type III domain (Fn10) of human fibronectin, residues 1417-1509; disulphide-linked dimer via the Fc; also called N-terminally MAP-tagged Fn10-Fc; source: Expi293F, transiently transfected, culture supernatant
T2 chain: GDGMVPPGIEDKIT
Nature of the assay: pull-down; PMab-1 immobilised on Sepharose; culture supernatants of transfected Expi293F cells; washed three times with TBS; 12.5% non-reducing SDS-PAGE, Coomassie. The following applies: one partner purified.

Another assay addresses T3, Fn10-nMAP8 (Mus musculus (MAP tag), chimera).
T3 construct: MAP8 tag, the N-terminal 8 residues of the MAP tag derived from mouse podoplanin, at the N-terminus; tenth fibronectin type III domain (Fn10) of human fibronectin, residues 1417-1509; disulphide-linked dimer via the Fc; also called N-terminally MAP-tagged Fn10-Fc; source: Expi293F, transiently transfected, culture supernatant
T3 chain: GDGMVPPG
The assay is described as above. The following applies: one partner purified.

A further assay has as its target T4, Fn10-iFG-G (mouse podoplanin MAP8 tag (carried in …, chimera)).
T4 construct: Fn10 of human fibronectin up to Gly1494 of the FG loop; extra Gly residue(s) before the tag; MAP8 tag, derived from mouse podoplanin; extra Gly residue(s) after the tag; Fn10 of human fibronectin from Ser1496; As Fn10-iFG with the inserted MAP8 flanked by extra Gly residues at both ends; source: Expi293F, transiently transfected, culture supernatant
T4 chain: GDGMVPPG
The assay is described as above. The following applies: one partner purified.

B1: PMab-1(QQ) Fv-clasp (other, rat | human)
VH: QIQLQQSGTVLVKPASSVKISCKASGYSFTSHYMHWIRQQPGQGLEWIGWISPEQGNTKYNQKFDGKATLTADKSSSIAYMQLSSLTSEDSAVYFCVSWEDWSAYWGQGTLVTVCS
VL: DIVLTQSPALTVSLGQRATISCKTNQNVDYYGNSYVHWYQQKPGQKPKLLIYLASNLASGIPARFSGRGSGTDFTLTIDPVEAADTATYYCQQSRDLPNTFGAGTKLELK
notes: VH domain of rat anti-MAP monoclonal antibody PMab-1; SARAH domain of human Mst1 (anti-parallel coiled coil of the Fv-clasp format); VL domain (kappa) of rat anti-MAP monoclonal antibody PMab-1; SARAH domain of human Mst1 with S37C; Fv-clasp(v2) format, non-tagged version; also called PMab-1(QQ) Fv-clasp mutant; PMab-1VH(S112C)-SARAH with N43Q and N54Q + PMab-1VL-SARAH(S37C)
As to B1, the binding result in assay [1] is “binds”.

B2: PMab-1, rat anti-MAP monoclonal antibody (IgG2a, kappa) (antibody, V domains shown)
VH: QIQLQQSGTVLVKPASSVKISCKASGYSFTSHYMHWIRQQPGNGLEWIGWISPENGNTKYNQKFDGKATLTADKSSSIAYMQLSSLTSEDSAVYFCVSWEDWSAYWGQGTLVTVSS
VL: DIVLTQSPALTVSLGQRATISCKTNQNVDYYGNSYVHWYQQKPGQKPKLLIYLASNLASGIPARFSGRGSGTDFTLTIDPVEAADTATYYCQQSRDLPNTFGAGTKLELK
notes: VH of PMab-1; as the VH of m1 (PDB 6lz4, VH-SARAH chain) but with Asn43, Asn54 and Ser112 of the parent antibody; constant region of rat IgG2a heavy chain; VL of PMab-1; as the VL of m1 (PDB 6lz4, VL-SARAH chain); constant region of rat kappa light chain; Whole antibody; immobilised on Sepharose for pull-downs, used at 1.0 ug/ml in flow cytometry; copies: 2 + 2
For B2, the binding result with Fn10-nMAP14, with Fn10-nMAP8 and with Fn10-iFG-G was “binds” in each case.

B3: PMab-1 Fv-clasp (other, rat | human)
VH: QIQLQQSGTVLVKPASSVKISCKASGYSFTSHYMHWIRQQPGNGLEWIGWISPENGNTKYNQKFDGKATLTADKSSSIAYMQLSSLTSEDSAVYFCVSWEDWSAYWGQGTLVTVCS
VL: DIVLTQSPALTVSLGQRATISCKTNQNVDYYGNSYVHWYQQKPGQKPKLLIYLASNLASGIPARFSGRGSGTDFTLTIDPVEAADTATYYCQQSRDLPNTFGAGTKLELK
notes: VH domain of PMab-1 with S112C; as the VH of m1 (PDB 6lz4, VH-SARAH chain) but with Asn at 43 and 54 instead of the Gln of the entry; C112 is already in the entry; SARAH domain of human Mst1; VL domain (kappa) of PMab-1; as the VL of m1 (PDB 6lz4, VL-SARAH chain); SARAH domain of human Mst1 with S37C; as in the VL-SARAH chain of m1 (PDB 6lz4), which already holds the Cys; Parent of m1, without …
Turning to B3, the binding result in assay [1] is on record as “binds”.

Source of the values: publication PMC7585734, “Site-specific epitope insertion into recombinant proteins using the MAP tag system” (Journal of Biochemistry, 2020).
